Substitutions are numbered along the chain they refer to.
T1: HLA-DR (DRA*0101/DRB1*0401) on the surface of PRIESS cells (human, UniProt P01903 26-254; P01911 30-266)
T1 MHC II alpha: not shown
T1 MHC II beta: not shown

T2: human MHC class II DR protein (DRA*0101/DRB1*0401), purified from PRIESS cells (human, UniProt P01903 26-254; P01911 30-266, limits assumed)
T2 construct: mature; 'mature' is my reading; also called HLA-DR protein; MHCII
T2 MHC II alpha: not shown
T2 MHC II beta: not shown

B1: MS-GPC-8-27-41 (IgG4 form) (antibody, V domains shown)
VH: QVQLKESGPALVKPTQTLTLTCTFSGFSLSTSGVGVGWIRQPPGKALEWLALIDWDDDKYYSTSLKTRLTISKDTSKNQVVLTMTNMDPVDTATYYCARSPRYRGAFDYWGQGTLVTVSS
VL: DIVLTQPPSVSGAPGQRVTISCSGSESNIGNNYVQWYQQLPGTAPKLLIYDNNQRPSGVPDRFSGSKSGTSASLAITGLQSEDEADYYCQSYDMNVHVFGGGTKLTVLG
notes: Human IgG4 (constant region EMBL K01316), lambda constant region (EMBL M18645), from CHO-K1 cells; also called 1D09C3
B2: MS-GPC-8-10-57 (IgG4 form) (antibody, V domains shown)
VH: B1 VH
VL: B1 VL with M94L, N95I, V96R
notes: Human IgG4 (constant region EMBL K01316), lambda constant region (EMBL M18645), from CHO-K1 cells; also called 1C7277
B3: MS-GPC-10 (Fab form) (Fab, V domains shown)
VH: B1 VH with S100Q, P101L, R102H, A106G, Y109L
VL: B1 VL with E26S, N31S, Q35S, M94L, N95T, V96M, H97G
B4: MS-GPC-8 (Fab form) (Fab, V domains shown)
VH: B1 VH
VL: B1 VL with E26S, N31S, Q35S, N95P, V96Q, H97A
notes: Fab: VH-CH1-FLAG-STREP tag II; also called B8-Fab; B8
B5: MS-GPC-1 (Fab form) (Fab, V domains shown)
VH: B1 VH with S100Q, P101Y, R102G, Y103H, A106G, Y109H
VL: B1 VL with E26S, N31S, Q35S, M94F, V96E, H97S
B6: MS-GPC-8-27-10 (Fab form) (Fab, V domains shown)
VH: B1 VH
VL: B1 VL with N31A, Q35N
notes: Fab: VH-CH1-FLAG-STREP tag II
B7: MS-GPC-8-6 (Fab form) (Fab, V domains shown)
VH: B1 VH
VL: B1 VL with E26S, N31S, Q35S, M94Y, N95D, V96H, H97Y
notes: Fab: VH-CH1-FLAG-STREP tag II
B8: MS-GPC-8-27-7 (Fab form) (Fab, V domains shown)
VH: B1 VH
VL: B1 VL with Q35G
notes: Fab: VH-CH1-FLAG-STREP tag II
B9: MS-GPC-8-6-47 (Fab form) (Fab, V domains shown)
VH: B1 VH
VL: B1 VL with N31S, Q35S, M94Y, N95D, V96H, H97Y
notes: Fab: VH-CH1-FLAG-STREP tag II
B10: MS-GPC-8-10-57 (Fab form) (Fab, V domains shown)
VH: B1 VH
VL: B1 VL with M94L, N95I, V96R
notes: Fab: VH-CH1-FLAG-STREP tag II; also called 1C7277
B11: MS-GPC-8-6-13 (Fab form) (Fab, V domains shown)
VH: B1 VH
VL: B1 VL with N31A, Q35T, M94Y, N95D, V96H, H97Y
notes: Fab: VH-CH1-FLAG-STREP tag II; also called 305D3
B12: MS-GPC-8-6-27 (Fab form) (Fab, V domains shown)
VH: B1 VH
VL: B1 VL with E26D, N31A, Q35T, M94Y, N95D, V96H, H97Y
notes: Fab: VH-CH1-FLAG-STREP tag II
B13: MS-GPC-8-27-41 (Fab form) (Fab, V domains shown)
VH: B1 VH
VL: B1 VL
notes: Fab: VH-CH1-FLAG-STREP tag II; also called 1D09C3
B14: MS-GPC-8-6 (IgG form) (antibody, V domains shown)
VH: B1 VH
VL: B1 VL with E26S, N31S, Q35S, M94Y, N95D, V96H, H97Y
B15: MS-GPC-8-6-2 (IgG form) (antibody, V domains shown)
VH: B1 VH
VL: B1 VL with N31S, Q35H, M94Y, N95D, V96H, H97Y
B16: MS-GPC-8-6-19 (Fab form) (Fab, V domains shown)
VH: B1 VH
VL: B1 VL with N31S, Q35A, M94Y, N95D, V96H, H97Y
B17: MS-GPC-8-6-2 (Fab form) (Fab, V domains shown)
VH: B1 VH
VL: B1 VL with N31S, Q35H, M94Y, N95D, V96H, H97Y
B18: MS-GPC-8-6-13 (IgG4 form) (antibody, V domains shown)
VH: B1 VH
VL: B1 VL with N31A, Q35T, M94Y, N95D, V96H, H97Y
notes: Human IgG4 (constant region EMBL K01316), lambda constant region (EMBL M18645), from CHO-K1 cells; also called 305D3
B19: MS-GPC-1 (scFv form) (scFv, V domains shown)
VH: B1 VH with Q1E, S100Q, P101Y, R102G, Y103H, A106G, Y109H
VL: B1 VL with E26S, N31S, Q35S, M94F, V96E, H97S

These binders were tested against human-mouse chimeric molecule DR-IE (human; mouse) (assay: cell-based or functional assay).

Row | Binder | IC50 for inhibition of T cell proliferation
1 | B1 | 20 nM
2 | B2 | 11 nM

Each binder was assayed against HLA-DR antigen on the surface of HLA-DR positive cells (tumor cell lines other than PRIESS and LG-2, normal B … (human)) (assay: cell-based or functional assay).

Row | Binder | EC50 of cell killing, IgG form
3 | B1 | 1.2 nM
4 | B2 | 1.2 nM

Target: T1, HLA-DR (DRA*0101/DRB1*0401) on the …
Test: cell-based or functional assay

Row | Binder | EC50 of cell killing, as bivalent cross-linked (Fab)dimer | EC50 of cell killing, cross-linked Fab, as monovalent fragment
5 | B3 | < 60 nM | < 120 nM
6 | B4 | < 60 nM | < 120 nM
7 | B5 | < 60 nM | < 120 nM

The binders below were run against T3, bovine serum albumine (bovine, UniProt P02769 25-607) (assay: ELISA, antigen coated at 10 µg/well).
T3 construct: negative control protein; also called BSA
Procedure: (§1) After washing in PBS the anti-human IgG F(ab)₂-peroxidase-conjugate at a 1:10,000 dilution in TBS (supplemented with 5% w/v non-fat dry-milk/0.05% v/v Tween 20) was added to each well for 1 h. Final washes were carried out in PBS followed the addition the substrate POD (Roche). Color-development was read at 370 nm in an ELISA-Reader.

Row | Binder | binding result
8 | B6 | no binding (tested: 100 ng/well)
9 | B4 | no binding (tested: 100 ng/well)
10 | B7 | no binding (tested: 100 ng/well)
11 | B8 | no binding (tested: 100 ng/well)

Each binder was assayed against T4, human apotransferrin (human, UniProt P02787 20-698) (assay: ELISA, antigen coated at 10 µg/well).
T4 construct: negative control protein
Procedure: as §1

Row | Binder | binding result
12 | B9 | no binding (tested: 100 ng/well)
13 | B10 | no binding (tested: 100 ng/well)
14 | B6 | no binding (tested: 100 ng/well)
15 | B11 | no binding (tested: 100 ng/well)
16 | B4 | no binding (tested: 100 ng/well)
17 | B12 | no binding (tested: 100 ng/well)
18 | B7 | no binding (tested: 100 ng/well)
19 | B13 | no binding (tested: 100 ng/well)
20 | B8 | no binding (tested: 100 ng/well)

Target: T2, human MHC class II DR protein …
Test: SPR (BIAcore), Fab, 3 chips (500, 4000, 3000RU)

Row | Binder | Kd | kon
21 | B7 | 8 nM | 120000 M⁻¹ s⁻¹

Target: human-mouse chimeric molecule DR-IE (human; mouse)
Test: cell-based or functional assay
Remark: another data set of the same source

Row | Binder | IC50, inhibition of IL-2 secretion of T-Hyb 1 cells | Maximum inhibition(%) of IL-2 secretion
22 | B9 | 2.6 nM ((Fab)/2) | 100%
23 | B14 | 6.7 nM | 100%
24 | B15 | 3.6 nM | 100%
25 | B10 | 2.9 nM ((Fab)/2) | 100%
26 | B6 | 7.3 nM ((Fab)/2) | 100%
27 | B16 | 5.3 nM ((Fab)/2) | 100%
28 | B11 | 2.1 nM ((Fab)/2) | 100%
29 | B17 | 4.7 nM ((Fab)/2) | 100%
30 | B1 | 0.28 nM | 100%
31 | B4 | 110 nM ((Fab)/2) | 100%
32 | B12 | 3 nM ((Fab)/2) | 100%
33 | B7 | 20 nM ((Fab)/2) | 100%
34 | B2 | 0.31 nM | 100%
35 | B13 | 3.6 nM ((Fab)/2) | 100%
36 | B18 | 0.42 nM | 100%
37 | B8 | 5.9 nM ((Fab)/2) | 100%

Target: T2, human MHC class II DR protein …
Test: BiaCore, IgG4
Procedure: The affinities for anti-HLA antibody fragments of the invention were measured as follows. All measurements were conducted in HBS buffer (20 mM HEPES, 150 mM NaCl, pH 7.4) at a flow rate of 20 μl/min at 25° C. on a BIAcore3000 instrument (Biacore AB, Sweden). MHC class II DR protein (prepared as example 1) was diluted in 100 mM sodium acetate pH 4.5 to a concentration of […], and coupled to a CM5 chip (Biacore AB) using standard EDC-NHS coupling chemistry with subsequent ethanolamine treatment as manufacturers directions. The coating density of MHCII was adjusted to between 500 and 4000 RU. Affinities were measured by injection of 5 different concentrations of the different antibodies and using the standard software of the Biacore instrument. Regeneration of the coupled surface was achieved using 10 mM glycine pH 2.3 and 7.5 mM NaOH.

Row | Binder | kon | koff
38 | B1 | 71000 M⁻¹ s⁻¹ | –
39 | B2 | 11000 M⁻¹ s⁻¹ | –
40 | B18 | – | 0.00033 s⁻¹

The binders below were run against T5, HLA-DR on the human B-lymphoblastoid cell line LG-2 (human) (assay: cell-based or functional assay).

Row | Binder | % killing of LG-2 cells, 50 nM, 4 h
41 | B1 | 87%
42 | B2 | 88%
43 | B18 | 82%

What follows are binders tested against T5, HLA-DR on the human B-lymphoblastoid … (assay: FACS on LG-2 cells, competitor 1-1C4).
Procedure: Subsequently murine antibodies were added and the murine antibodies were detected.
The whole staining procedure was performed on ice. 1×10⁷ cells of the human B-lymphoblastoid cell line LG-2 was preblocked for 20 min. in PBS containing 2% FCS and 35 μg/ml Guinea Pig IgG (“FACS-Buffer”). […] Subsequently, 4 ml of PBS were added to each vial, the vials were centrifuged at 300×g for 8 min, and the cell pellet resuspended in 50 μl FACS buffer containing a 1 to 25 dilution of a goat-anti-murine Ig-FITC conjugate at 20 μg/ml final concentration (BD Pharmingen, Torrey Pines, Calif., USA). Cells were incubated light-protected for 30 min. Afterwards, cells were washed with 4 ml PBS, centrifuged as above and resuspended in 500 μl PBS for analysis in the flow cytometer (FACS Calibur, BD Immunocytometry Systems, San Jose, Calif., USA).

Row | Binder | reduction of mean fluorescence intensity of the murine antibody
44 | B10 | > 90%
45 | B1 | > 90%
46 | B2 | > 90%

Target: T2, human MHC class II DR protein …
Test: SPR (BIAcore), scFv, chip density 500RU MHCII

Row | Binder | Kd | koff | kon
47 | B19 | 1500 nM | 0.061 s⁻¹ | 41300 M⁻¹ s⁻¹

Target: T5, HLA-DR on the human B-lymphoblastoid …
Test: cell-based or functional assay
Remark: another data set of the same source

Row | Binder | EC50 of cell killing, LG2, cross-linked Fab as bivalent agent | EC50 of cell killing, LG2, IgG4
48 | B10 | 7.2 nM | –
49 | B1 | – | 1.23 nM
50 | B2 | – | 1 nM

Source: patent publication US20090325290A1 (published 2009)
